# Measurements as given in patent US8372810B2, “Anti-tumor drug, medicament, composition, and use thereof” (Gene Signal International SA, priority 2007, dated 2013).
# Values joined by “and” are separate entries in the source; they are usually repeats but may differ in a detail not shown here. Equal entries are not always repeated.
# B1: 497C-T2: entire LEL domain of protein 497C, SEQ ID NO:3 (112 amino acids); as produced SEQ ID NO:8, with N-terminal His-Tag and C-terminal tail, 24 kD (protein, listed as Homo sapiens)
# chain: MHHHHHHSSGLVPRGSGMKETAAAKFERQHMDSPDLGTDDDDKISGFVFRHEIKDTFLRTYTDAMQTYNGNDERSRAVDHVQRSLSCCGVQNYTNWSTSPYFLEHGIPPSCCMNETDCNPQDLHNLTVAATKVNQKGCYDLVTSFMETNMGIIAGDRASPQPWRYRIRILAPSTSLRPHSSTTTTTTXIRLLTKPERKLSWLLPPLSNN
# modifications: X: residue not identified in the source
# What was measured:
# [1] = tested on: HUVEC cells; assay: Inhibition of endothelial cell proliferation in vitro (MTT); assay type: cell-based, human
# Protocol: HUVEC cells were cultured to confluency in complete EGM2-MV medium (Cambrex) at 37° C. and in 5% CO2 humidified atmosphere. Cells were then collected by trypsine-EDTA digestion (Versene, Eurobio). After 5 min, the enzymatic reaction was stopped by adding 3 ml of the culture medium containing 5% FCS. Cells were then centrifuged at 220 g for 10 min at room temperature, washed twice with 5 ml of culture medium, suspended in complete culture medium, counted and adjusted to 50 000 cells/ml. One hundred μL per well were then distributed to a 96-well cell culture grade micro-plate (5 000 cells/well) and incubated with different concentrations of the purified protein 497C-T2 in Tris-HCl 20 mM buffer (pH 8), containing 150 mM NaCl and urea 2M; this buffer was used as control.
# After 42 hrs at 37° C., cell proliferation was measured using thiazolyl blue tetrazolium bromide (MTT) method. Briefly, MTT (Sigma) was dissolved in PBS at 5 mg/ml, the solution was filtered (0.22 μm) and 10 μl were added to each well of the 96-well micro-plates. After 3 hrs of incubation at 37° C., 5% CO2 humidified atmosphere, the micro-plates were centrifuged at 220×g for 10 min, the supernatant was discarded, and the crystals dissolved by the addition of 100 μl of DMSO to each well. The optical density (OD) at 570 nm was then measured using μQuant micro-plate reader (Bio-Tek Instrument gmbh, Colmar, France) coupled to the KC4 (Bio-Tek) software.
# [2] = tested on: tumor cell line Calu-6; assay: Proliferation of other cell lines: Calu-6; assay type: cell-based, human; details: even at high concentration
# [3] = tested on: HUVEC; assay: In vitro angiogenesis of HUVEC induced by FGF2 and VEGF on Matrigel; assay type: cell-based, human
# Protocol: The purified proteins 497C-T2, 497C-T3, 497C-T4 and 497C-T5 were tested in vitro on angiogenesis of HUVEC induced by FGF2 and VEGF on Matrigel.
# 24 wells plates were prepared with 250 μL of BD Matrigel™/well and then incubated 30 minutes in incubator.
# [4] = tested on: CHO; assay: Proliferation of other cell lines: CHO; assay type: cell-based; details: even at high concentration
# [5] = tested on: fibroblast cell line MRC5; assay: Proliferation of other cell lines: MRC5; assay type: cell-based; details: even at high concentration
# [6] = tested on: CALU-6 tumors; assay: CALU-6 non-small cell lung cancer xenograft in Swiss Nude mice, tumor growth; assay type: in vivo
# Protocol: CALU-6 cells were cultured as adherent cells in complete EMEM medium (Ref. CM1MEM18-01, batch No. 462502, Eurobio, France) 10% fetal calf serum (FCS; Ref. CVFSVF00-01, batch No. 513021, Eurobio, France) under a 37° C., 5% CO2 humidified atmosphere. They were amplified in 75 cm^2-flasks to reach 90×10^6 cells.
# At D0, CALU-6 cells (human lung carcinoma) were collected from 75 cm^2-flasks by removing the medium and adding 3 ml of trypsine-EDTA (Ref. CEZTDA00-0U, batch No. 633920, Eurobio, France). After 5 min of incubation at 37° C., cells had detached from the plastic and the enzymatic reaction was stopped by adding 3 ml of EMEM medium containing 10% fetal calf serum. Cells were then centrifuged at 700 g for 5 min at room temperature. They were resuspended in serum-free EMEM culture medium. Cells were counted and viability assessment by Trypan Blue exclusion (Ref. CSTCOL03-OU, batch No. 434511, Eurobio, France). The number of viable CALU-6 cells was >99%. The number of cells was then adjusted to 25×10^6 cells/ml in serum-free medium.
# CALU-6 cells 5×10^6 cells/mouse in 200 μl of serum-free medium) were then implanted subcutaneously in the right flank of each mouse.
# At D12 post-implantation of the CALU-6 cells, the thirty mice were randomized into six groups of 5 mice. Tumor volumes had reached 228 to 468 mm^3 and mean tumor volumes were not statistically different between groups after randomization.
# Mean tumor volumes (MTV), mean relative tumor volume (MRTV) and tumor growth inhibition (T/C) were calculated as for example 7.
# [7] = IP Q2DX8, CDDP 5 mg/kg (G2), 497C-T2 10 mg/kg (G3), 497C-T2 10 mg/kg + CDDP 5 mg/kg (G4)
molecule,measurement,setting,value
B1,concentration significantly inhibiting human endothelial cell proliferation (as low as),[1],500 nM
same,% inhibition of endothelial cell proliferation,"[1]; 5 μM (122 μg) 497C-T2, 42 hrs, relative to control, 5 µM",77% and 75%
same,inhibition of human endothelial cell proliferation,"[1]; increasing concentrations, FIG. 1",inhibited human endothelial cell proliferation in a dose dependent manner
same,anti-proliferative effect,[2],without any detectable anti-proliferative effect
same,"anti-angiogenic activity, capillary tube formation","[3]; 497C-T2 0.27-2 μM, 497C-T3 […], 497C-T4 3.18 μM, 497C-T5 3.35 μM, C-terminal tail 4.14 μM",inhibited in vitro angiogenesis in a dose-dependent manner
same,inhibition of in vitro angiogenesis,[3]; at 270 nM,small inhibition
same,inhibition of in vitro angiogenesis,[3]; at 540 nM,more than 50%
same,potency relative to anti-VEGF mAb and/or VEGF receptor (KDR)-based peptides,[3]; comparison with literature (Binetruy-Tournaire 2000),at least 200 fold
same,IC50,"[3]; dose-response study, read-out: IC50, inhibition of in vitro angiogenesis",< 540 nM
same,anti-proliferative effect,[4],without any detectable anti-proliferative effect
same,anti-proliferative effect,[5],without any detectable anti-proliferative effect
same,anti-tumoral activity,"[6]; CALU-6, monotherapy (G3) or combined with CDDP (G4)",slight anti-tumoral activity
same,"Growth inhibition based on T/C ratio, T/C ratio (%) D14",[6]; [7],10%
same,"Growth inhibition based on T/C ratio, T/C ratio (%) D16",[6]; [7],33%
same,"Growth inhibition based on T/C ratio, T/C ratio (%) D18",[6]; [7],7%
same,"Growth inhibition based on T/C ratio, T/C ratio (%) D20",[6]; [7],13%
same,"Growth inhibition based on T/C ratio, T/C ratio (%) D22",[6]; [7],26%
same,"Growth inhibition based on T/C ratio, T/C ratio (%) D24",[6]; [7],24%
same,"Growth inhibition based on T/C ratio, T/C ratio (%) D26",[6]; [7],39%
same,"Growth inhibition based on T/C ratio, T/C ratio (%) D28",[6]; [7],27%
same,MRTV D14,[6]; [7],1.64
same,MRTV D16,[6]; [7],2.11
same,MRTV D18,[6]; [7],2.34
same,MRTV D20,[6]; [7],3.22
same,MRTV D22,[6]; [7],3.09
same,MRTV D24,[6]; [7],4.31
same,MRTV D26,[6]; [7],4.60
same,MRTV D28,[6]; [7],6.02
same,MRTV D12,"[6]; reference day, IP Q2DX8, CDDP 5 mg/kg (G2), 497C-T2 10 mg/kg (G3), 497C-T2 10 mg/kg + CDDP 5 mg/kg (G4)",1
